# Test results from the emibetuzumab library of Makowski et al. (2022).
# B1: VH:VL chains; a variant is named by its letters at X, in order (parent)
# chain 1: QVQLVQSGAEVKKPGASVKVSCKASGYTFTDYXMHWVRQAPGQGLEWMGXVNPNXXXTTYNQKFEGRVTMTTDTSTSTAYMELRSLRSDDTAVYYCARXNXLDXWGQGTTVTVSS
# chain 2: DIQMTQSPSSLSASVGDRVTITCSVSSSVSSIYLHWYQQKPGKAPKLLIYSTSNLASGVPSRFSGSGSGTDFTLTISSLQPEDFATYYCQVYSGYPLTFGGGTKVEIK
# Variants of: B1
# Assay: yeast display scFab, FACS + sequencing
# Method in brief: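 The non-specific binding call was based on sorted and sequenced yeast displaying a heavy-chain CDR mutant scFab library. Labelling used anti-Myc with biotinylated ovalbumin (260 μg/mL in PBSB, 3 h, room temperature) or soluble membrane proteins (130 μg/mL, 20 min on ice), and FACS collected the top 25% and bottom 10% of binders in two replicates. Positive meant present in ≥3 of 4 pooled positive samples and in no negatives, and negative meant the converse.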
row,Variant,non-specific binding call
1,FRAGDYLV,no binding
2,FRAGGAWV,binds
3,FRAGGAWS,binds
4,FRAGGAWY,binds
5,VRAGDSVA,no binding
6,ARARGSGA,binds
7,YRARGFGA,binds
8,YRARGFGV,binds
9,YRAGGSWF,binds
10,YRAKGSAA,binds
11,YRAKGSAV,binds
12,YRAKGSAD,binds
13,YRAKGVGA,binds
14,ARAGGSVV,no binding
15,VRAGDYLV,no binding
16,VRAGDDVF,no binding
17,VRAGDDVD,no binding
18,VRAGDDVA,no binding
19,YRAKSALV,binds
20,FRAGSSGV,binds
21,FRAGGSVD,binds
22,ARAGDAVV,no binding
23,ARAGDAVA,no binding
24,YRAGSSGV,binds
25,YRAGSSGA,binds

row,Variant,non-specific binding call
1,YRAGSSGD,binds
2,FRAGGAVY,binds
3,FRAGGAVD,binds
4,YRAGGYAA,binds
5,YRAGGYWY,binds
6,VRARGAWF,binds
7,YRAGASAD,binds
8,YRAGASAV,binds
9,YRAGDSWD,no binding
10,DRAGGAGD,no binding
11,YRARGAVA,binds
12,YRARGAVS,binds
13,YRARGDGV,no binding
14,VRARGAGF,binds
15,FRAGSAVV,binds
16,ARAGGAAA,binds
17,YRAGGYVA,binds
18,YRAGGYVF,binds
19,YRAGGYVD,binds
20,VRAGGSAD,binds
21,VRAKGSAD,binds
22,YRAKGALF,binds
23,YRAKGALS,binds
24,YRAKGALA,binds
25,FRAGGSSV,binds

row,Variant,non-specific binding call
1,YRAGGAWY,binds
2,YRAGDAVV,no binding
3,FRAGDAGV,binds
4,DRAGDDLA,no binding
5,DRAGDDLY,no binding
6,SRARGAAA,binds
7,VRAGGAWV,binds
8,VRAGAFSV,no binding
9,VRAGDALV,no binding
10,DRAGDYLV,no binding
11,DRAGDYLY,no binding
12,VRAGGDLA,no binding
13,DRAGDDWY,no binding
14,DRAGDDWV,no binding
15,DRAGDDWA,no binding
16,VRAGGDWV,no binding
17,YRARGDLD,binds
18,DRAGDDGS,no binding
19,DRAGDDGD,no binding
20,DRAGDDGY,no binding
21,DRAGDDGA,no binding
22,VRAGGDVF,no binding
23,DRAGDDAV,no binding
24,YRARGASA,binds
25,YRAGASGA,binds

row,Variant,non-specific binding call
1,YRAGASGD,binds
2,DRAGDDVY,no binding
3,DRAGDDVF,no binding
4,DRAGDDVV,no binding
5,VRAKGAGY,binds
6,YRARGAWD,binds
7,YRARGAWV,binds
8,YRARGAWF,binds
9,YRARGAWS,binds
10,YRARGAWY,binds
11,YRARGSLA,binds
12,YRARGSLF,binds
13,YRAGGSVA,binds
14,YRAGGFVA,binds
15,YRAGGFVV,binds
16,YRAGTAAA,binds
17,FRARGAAV,binds
18,FRARGAAY,binds
19,FRAGGALS,binds
20,VRAGDDSD,no binding
21,DRAGDSGA,no binding
22,DRAGDSGF,no binding
23,YRAGSASD,binds
24,DRAGDALD,no binding
25,VRARGDVS,no binding

row,Variant,non-specific binding call
1,VRARGAAY,binds
2,VRARGAAD,no binding
3,YRAGGDAD,binds
4,YRAGSSWD,binds
5,VRAGDDGA,no binding
6,VRAGDDGS,no binding
7,VRAGDDGV,no binding
8,YRAGDSSA,no binding
9,YRAGDSSS,no binding
10,YRARGAAY,binds
11,YRARGAAS,binds
12,YRAKGAVV,binds
13,SRAGDYLV,no binding
14,YRAGGALS,binds
15,VRARGALV,binds
16,VRAGDAGV,no binding
17,VRAGDAGA,no binding
18,VRAGADWY,no binding
19,YRAKGAGA,binds
20,YRAKGAGS,binds
21,YRAKGAGD,binds
